Patent US8809010B2, “Method for prophylactic treatment of alzheimer's disease using inhibitors of glutaminyl cyclase and glutamate cyclases” (Probiodrug AG, priority 2003, dated 2014)

Substrate: NC(=O)CCC(N)C(=O)Nc1ccc2ccccc2c1
Experiment: Continuous spectrophotometric QC assay (glutamate dehydrogenase coupled), substrate kinetics;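 note: initial rates read on a microplate reader at 30 °C, with enzyme activity quantified against an ammonia calibration curve under the same assay conditions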
Type: biochemical
Settings: other: Human QC
[1] = 0.05M Tris-HCl, pH 8.0, 0.5 M KCl, pH 8.0

Protocol: The initial velocities were evaluated and the enzymatic activity was determined from a standard curve of ammonia under assay conditions. All samples were measured at 30° C., using either the [sequence]luor Plus or the Sunrise (both from TECAN) reader for microplates. Kinetic data was evaluated using GraFit software.

B1: human QC (Homo sapiens) (protein)
chain: VSPSASAWPEEKNYHQPAILNSSALRQIAEGTSISEMWQNDLQPLLIERYPGSPGSYAARQHIMQRIQRLQADWVLEIDTFLSQTPYGYRSFSNIISTLNPTAKRHLVLACHYDSKYFSHWNNRVFVGATDSAVPCAMMLELARALDKKLLSLKTVSDSKPDLSLQLIFFDGEEAFLHWSPQDSLYGSRHLAAKMASTPHPPGARGTSQLHGMDLLVLLDLIGAPNPTFPNFFPNSARWFERLQAIEHELHELGLLKDHSLEGRYFQNYSYGGVIQDDHIPFLRRGVPVLHLIPSPFPEVWHTMDDNEENLDESTIDNLNKILQVFVLEYLHL
notes: The cDNA of the mature QC starting with codon 38 was fused in frame with the plasmid encoded 6× histidine tag; 6xHis; made in house; host or cells: Pichia pastoris X33 (pPICZαB, secreted); also E. coli M15 (pQE-31)
In the case of B1, the Km (0.05M Tris-HCl, pH 8.0) is reported as 0.076 ± 0.004 mM, the kcat (0.05M Tris-HCl, pH 8.0) is reported as 21.7 ± 0.5 s⁻¹ and the kcat/Km (0.05M Tris-HCl, pH 8.0) is reported as 285 ± 8 mM⁻¹ s⁻¹. For the same protein, the Km [1] was 0.063 ± 0.003 mM, the kcat [1] was 20.0 ± 0.4 s⁻¹ and the kcat/Km [1] was 318 ± 9 mM⁻¹ s⁻¹. It also gave a Km (pH 8.8) of 0.07 ± 0.003 mM and a kcat (pH 8.8) of 20.6 ± 0.5 s⁻¹.
